# According to patent US20210388087A1:
# Biological target: Human CD137 ECD (human)
# Assay: Biacore SPR, vs parent H183/L072
# Chain of Human CD137 ECD (human) (chain, as listed by the source limits assumed): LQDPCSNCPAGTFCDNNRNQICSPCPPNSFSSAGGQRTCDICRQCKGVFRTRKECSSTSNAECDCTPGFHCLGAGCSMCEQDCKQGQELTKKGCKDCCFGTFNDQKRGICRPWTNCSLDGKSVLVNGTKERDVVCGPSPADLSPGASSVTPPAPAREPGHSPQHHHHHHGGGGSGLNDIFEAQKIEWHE
row,Binder,fold change of affinity [fold]
1,"H183/L072 VL H34N (antibody, name in Kabat numbering, V domains shown) VH: QVQLVESGGGLVQPGRSLRLSCAASGFTFSNAWMHWVRQAPGKGLEWVAQIKDKGNAYAAYYAPSVKGRFTISRDDSKNSIYLQMNSLKTEDTAVYYCHYVHYASASTVLPAFGVDAWGQGTTVTVSS VL: DIVMTQSPLSLPVTPGEPASISCQASQELVHMNRNTYLNWYQQKPGQAPRLLIYKVSNRFPGVPDRFSGSGSGTDFTLKISRVEAEDVGVYYCAQGTSVPFTFGQGTKLEIK",0
2,"H183/L072 VL H34T (antibody, name in Kabat numbering, V domains shown) VH: QVQLVESGGGLVQPGRSLRLSCAASGFTFSNAWMHWVRQAPGKGLEWVAQIKDKGNAYAAYYAPSVKGRFTISRDDSKNSIYLQMNSLKTEDTAVYYCHYVHYASASTVLPAFGVDAWGQGTTVTVSS VL: DIVMTQSPLSLPVTPGEPASISCQASQELVHMNRNTYLTWYQQKPGQAPRLLIYKVSNRFPGVPDRFSGSGSGTDFTLKISRVEAEDVGVYYCAQGTSVPFTFGQGTKLEIK",0
3,"H183/L072 VL L33D (antibody, name in Kabat numbering, V domains shown) VH: QVQLVESGGGLVQPGRSLRLSCAASGFTFSNAWMHWVRQAPGKGLEWVAQIKDKGNAYAAYYAPSVKGRFTISRDDSKNSIYLQMNSLKTEDTAVYYCHYVHYASASTVLPAFGVDAWGQGTTVTVSS VL: DIVMTQSPLSLPVTPGEPASISCQASQELVHMNRNTYDHWYQQKPGQAPRLLIYKVSNRFPGVPDRFSGSGSGTDFTLKISRVEAEDVGVYYCAQGTSVPFTFGQGTKLEIK",0
4,"H183/L072 VL Y32D (antibody, name in Kabat numbering, V domains shown) VH: QVQLVESGGGLVQPGRSLRLSCAASGFTFSNAWMHWVRQAPGKGLEWVAQIKDKGNAYAAYYAPSVKGRFTISRDDSKNSIYLQMNSLKTEDTAVYYCHYVHYASASTVLPAFGVDAWGQGTTVTVSS VL: DIVMTQSPLSLPVTPGEPASISCQASQELVHMNRNTDLHWYQQKPGQAPRLLIYKVSNRFPGVPDRFSGSGSGTDFTLKISRVEAEDVGVYYCAQGTSVPFTFGQGTKLEIK",0
5,"H183/L072 VL Y32E (antibody, name in Kabat numbering, V domains shown) VH: QVQLVESGGGLVQPGRSLRLSCAASGFTFSNAWMHWVRQAPGKGLEWVAQIKDKGNAYAAYYAPSVKGRFTISRDDSKNSIYLQMNSLKTEDTAVYYCHYVHYASASTVLPAFGVDAWGQGTTVTVSS VL: DIVMTQSPLSLPVTPGEPASISCQASQELVHMNRNTELHWYQQKPGQAPRLLIYKVSNRFPGVPDRFSGSGSGTDFTLKISRVEAEDVGVYYCAQGTSVPFTFGQGTKLEIK",0
6,"H183/L072 VL A25D (antibody, name in Kabat numbering, V domains shown) VH: QVQLVESGGGLVQPGRSLRLSCAASGFTFSNAWMHWVRQAPGKGLEWVAQIKDKGNAYAAYYAPSVKGRFTISRDDSKNSIYLQMNSLKTEDTAVYYCHYVHYASASTVLPAFGVDAWGQGTTVTVSS VL: DIVMTQSPLSLPVTPGEPASISCQDSQELVHMNRNTYLHWYQQKPGQAPRLLIYKVSNRFPGVPDRFSGSGSGTDFTLKISRVEAEDVGVYYCAQGTSVPFTFGQGTKLEIK",0
7,"H183/L072 VL N28D (antibody, name in Kabat numbering, V domains shown) VH: QVQLVESGGGLVQPGRSLRLSCAASGFTFSNAWMHWVRQAPGKGLEWVAQIKDKGNAYAAYYAPSVKGRFTISRDDSKNSIYLQMNSLKTEDTAVYYCHYVHYASASTVLPAFGVDAWGQGTTVTVSS VL: DIVMTQSPLSLPVTPGEPASISCQASQELVHMDRNTYLHWYQQKPGQAPRLLIYKVSNRFPGVPDRFSGSGSGTDFTLKISRVEAEDVGVYYCAQGTSVPFTFGQGTKLEIK",0
8,"H183/L072 VL H34Q (antibody, name in Kabat numbering, V domains shown) VH: QVQLVESGGGLVQPGRSLRLSCAASGFTFSNAWMHWVRQAPGKGLEWVAQIKDKGNAYAAYYAPSVKGRFTISRDDSKNSIYLQMNSLKTEDTAVYYCHYVHYASASTVLPAFGVDAWGQGTTVTVSS VL: DIVMTQSPLSLPVTPGEPASISCQASQELVHMNRNTYLQWYQQKPGQAPRLLIYKVSNRFPGVPDRFSGSGSGTDFTLKISRVEAEDVGVYYCAQGTSVPFTFGQGTKLEIK",0
9,"H183/L072 VL Q24E (antibody, name in Kabat numbering, V domains shown) VH: QVQLVESGGGLVQPGRSLRLSCAASGFTFSNAWMHWVRQAPGKGLEWVAQIKDKGNAYAAYYAPSVKGRFTISRDDSKNSIYLQMNSLKTEDTAVYYCHYVHYASASTVLPAFGVDAWGQGTTVTVSS VL: DIVMTQSPLSLPVTPGEPASISCEASQELVHMNRNTYLHWYQQKPGQAPRLLIYKVSNRFPGVPDRFSGSGSGTDFTLKISRVEAEDVGVYYCAQGTSVPFTFGQGTKLEIK",0

# More lines, now with the values ahead:
row,fold change of affinity [fold],Binder
1,0,"H183/L072 VL Y32S (antibody, name in Kabat numbering, V domains shown) VH: QVQLVESGGGLVQPGRSLRLSCAASGFTFSNAWMHWVRQAPGKGLEWVAQIKDKGNAYAAYYAPSVKGRFTISRDDSKNSIYLQMNSLKTEDTAVYYCHYVHYASASTVLPAFGVDAWGQGTTVTVSS VL: DIVMTQSPLSLPVTPGEPASISCQASQELVHMNRNTSLHWYQQKPGQAPRLLIYKVSNRFPGVPDRFSGSGSGTDFTLKISRVEAEDVGVYYCAQGTSVPFTFGQGTKLEIK"
2,0,"H183/L072 VL A25E (antibody, name in Kabat numbering, V domains shown) VH: QVQLVESGGGLVQPGRSLRLSCAASGFTFSNAWMHWVRQAPGKGLEWVAQIKDKGNAYAAYYAPSVKGRFTISRDDSKNSIYLQMNSLKTEDTAVYYCHYVHYASASTVLPAFGVDAWGQGTTVTVSS VL: DIVMTQSPLSLPVTPGEPASISCQESQELVHMNRNTYLHWYQQKPGQAPRLLIYKVSNRFPGVPDRFSGSGSGTDFTLKISRVEAEDVGVYYCAQGTSVPFTFGQGTKLEIK"
3,0,"H183/L072 VL L33S (antibody, name in Kabat numbering, V domains shown) VH: QVQLVESGGGLVQPGRSLRLSCAASGFTFSNAWMHWVRQAPGKGLEWVAQIKDKGNAYAAYYAPSVKGRFTISRDDSKNSIYLQMNSLKTEDTAVYYCHYVHYASASTVLPAFGVDAWGQGTTVTVSS VL: DIVMTQSPLSLPVTPGEPASISCQASQELVHMNRNTYSHWYQQKPGQAPRLLIYKVSNRFPGVPDRFSGSGSGTDFTLKISRVEAEDVGVYYCAQGTSVPFTFGQGTKLEIK"
4,0,"H183/L072 VL H34S (antibody, name in Kabat numbering, V domains shown) VH: QVQLVESGGGLVQPGRSLRLSCAASGFTFSNAWMHWVRQAPGKGLEWVAQIKDKGNAYAAYYAPSVKGRFTISRDDSKNSIYLQMNSLKTEDTAVYYCHYVHYASASTVLPAFGVDAWGQGTTVTVSS VL: DIVMTQSPLSLPVTPGEPASISCQASQELVHMNRNTYLSWYQQKPGQAPRLLIYKVSNRFPGVPDRFSGSGSGTDFTLKISRVEAEDVGVYYCAQGTSVPFTFGQGTKLEIK"
5,0,"H183/L072 VL Y32T (antibody, name in Kabat numbering, V domains shown) VH: QVQLVESGGGLVQPGRSLRLSCAASGFTFSNAWMHWVRQAPGKGLEWVAQIKDKGNAYAAYYAPSVKGRFTISRDDSKNSIYLQMNSLKTEDTAVYYCHYVHYASASTVLPAFGVDAWGQGTTVTVSS VL: DIVMTQSPLSLPVTPGEPASISCQASQELVHMNRNTTLHWYQQKPGQAPRLLIYKVSNRFPGVPDRFSGSGSGTDFTLKISRVEAEDVGVYYCAQGTSVPFTFGQGTKLEIK"
6,0,"H183/L072 VL H34D (antibody, name in Kabat numbering, V domains shown) VH: QVQLVESGGGLVQPGRSLRLSCAASGFTFSNAWMHWVRQAPGKGLEWVAQIKDKGNAYAAYYAPSVKGRFTISRDDSKNSIYLQMNSLKTEDTAVYYCHYVHYASASTVLPAFGVDAWGQGTTVTVSS VL: DIVMTQSPLSLPVTPGEPASISCQASQELVHMNRNTYLDWYQQKPGQAPRLLIYKVSNRFPGVPDRFSGSGSGTDFTLKISRVEAEDVGVYYCAQGTSVPFTFGQGTKLEIK"
